This note sets out measurements from US20110229981A1.

Assay [1] deals with CD31 solubilized from Jurkat T cell lysates and captured on PECAM 1.2-coupled CBA beads (human) (UniProt P16284). The assay can be described thus: co-capture on PECAM 1.2 CBA beads from Jurkat lysate, anti-CD28-PE, flow cytometry; negative control (unstimulated). A general note: A flow cytometer gives signals particle by particle.
The target is the same in assay [2]. The assay can be described thus: co-capture on PECAM 1.2 CBA beads from Jurkat lysate, anti-CD28-PE, flow cytometry; antibody CD31 treatment (CD3 + CD31 crosslink).
Assay [3] has the same target. The assay can be described thus: co-capture on PECAM 1.2 CBA beads from Jurkat lysate, anti-CD28-PE, flow cytometry; peptide CD31 treatment (CD3 crosslink + CD31 peptide).
For assay [4] the target is unchanged. The assay can be described thus: co-capture on PECAM 1.2 CBA beads from Jurkat lysate, anti-CD28-PE, flow cytometry; T-cell activation (CD3 crosslink).
Assay [5] shares this target. The assay can be described thus: co-capture on PECAM 1.2 CBA beads from Jurkat lysate, anti-CD28-PE, flow cytometry; positive pY control (Na3VO4/H2O2).
Assay [6] shares this target. The assay is described as follows: co-capture on PECAM 1.2 CBA beads from Jurkat lysate, anti-SHP2-PE, flow cytometry; positive pY control (Na3VO4/H2O2).
For assay [7] the target is unchanged. The assay can be described thus: co-capture on PECAM 1.2 CBA beads; peptide CD31 treatment against CD3 crosslink conditions.
The target is the same in assay [8]. The assay is described as follows: co-capture on PECAM 1.2 CBA beads from Jurkat lysate, anti-SHP2-PE, flow cytometry; peptide CD31 treatment (CD3 crosslink + CD31 peptide).
Assay [9] shares this target. The assay can be described thus: co-capture on PECAM 1.2 CBA beads from Jurkat lysate, anti-SHP2-PE, flow cytometry; negative control (unstimulated).
Assay [10] shares this target. The assay can be described thus: co-capture on PECAM 1.2 CBA beads from Jurkat lysate, anti-SHP2-PE, flow cytometry; T-cell activation (CD3 crosslink).
For assay [11] the target is unchanged. The assay can be described thus: co-capture on PECAM 1.2 CBA beads from Jurkat lysate, anti-SHP2-PE, flow cytometry; antibody CD31 treatment (CD3 + CD31 crosslink).
Assay [12] has the same target. The assay can be described thus: co-capture on PECAM 1.2 CBA beads; antibody CD31 treatment against CD3 crosslink conditions.
Assay [13] shares this target. The assay is described as follows: co-capture on PECAM 1.2 CBA beads from Jurkat lysate, anti-CD3-FITC, flow cytometry; antibody CD31 treatment (CD3 + CD31 crosslink).
Assay [14] shares this target. The assay can be described thus: co-capture on PECAM 1.2 CBA beads from Jurkat lysate, anti-CD3-FITC, flow cytometry; positive pY control (Na3VO4/H2O2).
Assay [15] shares this target. The assay can be described thus: co-capture on PECAM 1.2 CBA beads from Jurkat lysate, anti-CD3-FITC, flow cytometry; negative control (unstimulated).
Assay [16] shares this target. The assay can be described thus: co-capture on PECAM 1.2 CBA beads from Jurkat lysate, anti-CD3-FITC, flow cytometry; T-cell activation (CD3 crosslink).

Consider “CD28 (from UniProt P10747 19-220) (receptor)”, for which the MFI CD28 in [1] came to 8160 MFI; in assay [2] it was 17100 MFI; in assay [3] it was 24300 MFI; in assay [4] it was 25200 MFI; in assay [5], 3930 MFI.

Turning to “SHP-2 (from UniProt Q06124 2-593) (enzyme)”, the MFI SHP-2 in assay [6] was 193 MFI; in assay [8], 185 MFI; in assay [9], 165 MFI; in assay [10], 90 MFI; in assay [11] it was 149 MFI. Besides, the increase of the amount of SHP-2 associated to CD31 in assay [7] amounted to 100%; in assay [12], 50%.

For the substance CD3 (receptor), the MFI CD3 is 2420 MFI in [13], 354 MFI in assay [14], 197 MFI in assay [15] and 17900 MFI in [16].
